Assay results published in publication PMC9449591, “Therapeutic application of PPE2 protein of Mycobacterium tuberculosis in inhibiting tissue inflammation”.

Target: T1, rPPE2 (Mycobacterium tuberculosis, UniProt P9WI47 1-556)
T1 sequence: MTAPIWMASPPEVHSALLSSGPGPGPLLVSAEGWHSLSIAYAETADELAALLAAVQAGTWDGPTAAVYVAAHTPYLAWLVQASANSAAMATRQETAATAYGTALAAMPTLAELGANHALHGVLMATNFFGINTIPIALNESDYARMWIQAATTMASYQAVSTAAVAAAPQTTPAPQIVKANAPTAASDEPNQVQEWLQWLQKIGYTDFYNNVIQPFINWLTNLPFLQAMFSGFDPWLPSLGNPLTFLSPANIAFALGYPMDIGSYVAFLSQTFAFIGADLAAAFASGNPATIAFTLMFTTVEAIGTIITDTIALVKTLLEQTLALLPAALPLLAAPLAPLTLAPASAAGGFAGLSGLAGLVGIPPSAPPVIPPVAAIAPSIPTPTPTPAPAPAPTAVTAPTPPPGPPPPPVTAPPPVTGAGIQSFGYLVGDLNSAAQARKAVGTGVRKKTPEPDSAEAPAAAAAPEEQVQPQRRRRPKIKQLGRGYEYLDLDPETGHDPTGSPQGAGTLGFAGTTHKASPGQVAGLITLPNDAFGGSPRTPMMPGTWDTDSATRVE
Experiment: EMSA; 20 mM HEPES, 0.5 mM DTT, 0.5 mM EDTA, 5% glycerol; […]; 30 min at room temperature; […]
Details: protein: recombinant; tags: His (pRSET-A vector, TALON purified); label: 32P 5' end label (T4 PNK)

B1: scf core promoter 60-bp EMSA oligonucleotide (dsDNA)
DNA 1: CGCGTGCGGGCGGGAGGGAGCTGTATAAAAAGCGCTGGCGGCGCAGCAGCCGGGGCTTCATTTGCG
DNA 2: CGCAAATGAAGCCCCGGCTGCTGCGCCGCCAGCGCTTTTTATACAGCTCCCTCCCGCCCGCACGCG
binding result: binds
